In patent WO2007044695A2 (dated 2007):

Molecular target: GD03-S1(318-510)-C9 protein (SARS-CoV GD03 (GD03T0013), UniProt P59594 318-510)
Experiment: ELISA, serial dilutions of coated S1-(318-510)-C9 protein, 0.5 ug/ml IgG1

B1: 11A IgG1 (antibody, V domains shown)
VH: EVQLVQSGAEVKKPGESLKISCKGSGYSFTSYWIGWVRQMPGKGLEWMGIINPDNSDTRFSPSLQGQVTISVDKSINTVYLQWGSLKASDTAMYYCARQGDYSGPSINYWGQGTLVTVSS
VL: QSVLTQPASVSGSPGQSITISCTGTSSDVGGYNYVSWYQQHPGKAPKLMIYDVSKRPSGIPERFSGSNSGNTATLTISGTQAMDEADYYCQAWDSNTYVFGTGTKVTVLV
binding result: binds
